Consider 10 molecules from patent US20250270287A1 (KEROS THERAPEUTICS, published 2025).

Changes are numbered by the printed parent chain.

To fix the notation:
T1: growth differentiation factor 8 (GDF-8) (UniProt O14793 267-375)
T1 construct: also called myostatin
T1 sequence (looked up): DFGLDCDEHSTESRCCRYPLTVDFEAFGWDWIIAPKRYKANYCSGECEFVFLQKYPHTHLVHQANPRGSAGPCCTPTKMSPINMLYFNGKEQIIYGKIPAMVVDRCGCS

T2: ActRIIB-A1 (SEQ ID NO: 120) chimera-Fc protein (Homo sapiens (Human), UniProt Q13705 28-134)
T2 construct: Tested as chimera-Fc protein; not shown: linker (if any) and Fc domain
T2 sequence: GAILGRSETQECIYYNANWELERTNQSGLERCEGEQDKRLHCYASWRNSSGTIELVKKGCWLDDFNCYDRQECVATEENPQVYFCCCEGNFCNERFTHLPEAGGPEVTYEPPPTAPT

T3: ActRIIB (SEQ ID NO: 31) Fc protein (human, UniProt Q13705 20-134)
T3 construct: also called ActRII-Fc; wild-type extracellular ActRIIB; not shown: linker (if any) and Fc domain
T3 sequence: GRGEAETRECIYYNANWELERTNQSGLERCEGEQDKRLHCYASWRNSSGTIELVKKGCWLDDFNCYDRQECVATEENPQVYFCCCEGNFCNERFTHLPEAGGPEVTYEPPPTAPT

B1: ActRIIA-A8 (SEQ ID NO: 110) chimera-Fc protein (Fc fusion)
chain: GAILGRSETQECLFFNANWEKDRTNQTGVEPCYGDKDKRRHCFATWKNISGSIEIVKQGCWLDDINCYDRTDCVEKKDSPEVYFCCCEGNMCNEKFSYFPEAGGPEVTYEPPPTAPT
notes: Tested as chimera-Fc protein; not shown: linker (if any) and Fc domain
B2: ActRIIA-B2B4 (SEQ ID NO: 103) chimera-Fc protein (Fc fusion)
chain: GAILGRSETQECLEFNANWEKDRTNQSGLERCYGDKDKRRHCFATWKNISGTIELVKKGCWLDDINCYDRTDCVEKKDSPEVYFCCCEGNMCNEKFSYFPEMEVTQPTS
notes: as for B1
B3: ActRIIA-B7 (SEQ ID NO: 100) chimera-Fc protein (Fc fusion)
chain: GAILGRSETQECLFFNANWEKDRTNQTGVEPCYGDKDKRRHCFATWKNISGSIEIVKQGCWLDDINCYDRTDCVEKKDSPEVYFCCCEGNMCNERFTHLPEMEVTQPTS
notes: as for B1
B4: ActRIIA-B4 (SEQ ID NO: 98) chimera-Fc protein (Fc fusion)
chain: B2 chain with E14F, S27T, L29V, R31P
notes: as for B1
B5: ActRIIA-B3 (SEQ ID NO: 97) chimera-Fc protein (Fc fusion)
chain: B3 chain with R40L, F43Y, T45S, K47R, I49S, R95K, T97S, H98Y, L99F
notes: as for B1
B6: BMP-9 (ligand, UniProt Q9UK05 320-429, looked up)
chain: SAGAGSHCQKTSLRVNFEDIGWDSWIIAPKEYEAYECKGGCFFPLADDVTPTKHAIVQTLVHLKFPTKVGKACCVPTKLSPISVLYKDDMGVPTLKYHYEGMSVAECGCR
notes: also called bone morphogenetic protein 9
B7: BMP-10 (ligand, UniProt O95393 317-424, looked up)
chain: NAKGNYCKRTPLYIDFKEIGWDSWIIAPPGYEAYECRGVCNYPLAEHLTPTKHAIIQALVHLKNSQKASKACCVPTKLEPISILYLDKGVVTYKFKYEGMAVSECGCR
B8: Activin A (ligand, UniProt P08476 311-426, looked up)
chain: GLECDGKVNICCKKQFFVSFKDIGWNDWIIAPSGYHANYCEGECPSHIAGTSGSSLSFHSTVINHYRMRGHSPFANLKSCCVPTKLRPMSMLYYDDGQNIIKKDIQNMIVEECGCS
B9: Activin B (ligand, UniProt P09529 293-407, looked up)
chain: GLECDGRTNLCCRQQFFIDFRLIGWNDWIIAPTGYYGNYCEGSCPAYLAGVPGSASSFHTAVVNQYRMRGLNPGTVNSCCIPTKLSTMSMLYFDDEYNIVKRDVPNMIVEECGCA
B10: GDF-11 (ligand, UniProt O95390 299-407, looked up)
chain: NLGLDCDEHSSESRCCRYPLTVDFEAFGWDWIIAPKRYKANYCSGQCEYMFMQKYPHTHLVQQANPRGSAGPCCTPTKMSPINMLYFNDKQQIIYGKIPGMVVDRCGCS
notes: also called growth and differentiation factor 11

One assay deals with B10. Put plainly: SPR (Biacore 8K), Fc protein captured on anti-human IgG, ligand injected. The procedure:
(§1) The Cytiva Biacore 8k was used to measure the kinetics of the interactions between the ActRII- and chimera-Fc proteins and Activin A/Activin B/growth differentiation factor 8 (GDF-8)/GDF-11/BMP-9/BMP-10. Series S CM4 Sensor Chips were immobilized with anti-human capture antibody using the reagents and protocol in the Biacore Human Antibody Capture Kit (GE Life Sciences). Briefly, anti-human IgG was diluted to 25 μg/mL in immobilization buffer. The carboxylated surface of the sensor was activated by injecting a mixture of EDC and NHS. The anti-human IgG was injected into the activated sensor chip flow cells at 10 μL/min for a total of 7 minutes until the chip reached an immobilization level of 3000 resonance units (RU). Ethanolamine was injected to deactivate the sensor surfaces. The chip has 8 flow cells to be used for binding analysis, each with an in-line reference surface to subtract instrument noise and non-specific binding to the sensor chip. The ActRII- and chimera-Fc proteins were captured in their own flow cell to allow for a maximum analyte binding response of 20-30 RU. This was done by injecting 10-20 μL of the ActRII- and chimera-Fc proteins into the flow cells at a concentration of 2 μg/mL until 60-90 RU was captured. Ligand at a single concentration was injected at […] for 60 seconds and then allowed to dissociate under buffer flow for no less than 5 minutes. After the cycle completed, captured protein was stripped from the chip with an injection of 3 M magnesium chloride, the regeneration buffer provided with the Biacore Human Antibody Capture Kit. Each ligand was injected in a concentration series, including a buffer only 0 nM concentration to serve as a double reference for subtracting out instrument noise. The data were analyzed using the Biacore Insight Evaluation Software.
In general terms: In SPR one partner is held on a chip, and binding of the other changes the refractive index at the surface.
Take B1: the Kd is < 0.001 nM.

Regarding B2, the Kd was < 0.001 nM.

Consider B3, for which the Kd was < 0.001 nM.

For the molecule B4, the Kd was < 0.001 nM.

Regarding B5, the Kd was < 0.001 nM.

The next assay concerns the target B9. Described as above. As to the method: as §1
B1: the Kd was < 0.001 nM.

B2: the Kd was < 0.001 nM.

Take B3: binding was put at a Kd of 0.00889 nM.

With B4, the Kd was < 0.001 nM.

With B5, the Kd was < 0.001 nM.

Another assay addresses B8. The description is as above. The procedure:
as §1
B1 showed a Kd of 0.04 nM.

B2: the Kd turned out to be 0.016 nM. This Kd lies about 2.5-fold lower than the previous one.

For the molecule B3, the Kd is 0.024 nM. This Kd is about 1.5-fold higher than that of the molecule before.

As for B4, the Kd stood at 0.0186 nM.

For B5, the Kd amounted to 0.0256 nM. This Kd and that of the molecule before are within 1.5-fold of each other.

The target in another assay is B7. Described as above. As to the method: as §1
In turn, B1 yielded a Kd of 0.0397 nM.

B2 had a Kd of 0.0605 nM. This Kd is about 1.5-fold higher than that of the molecule before.

B3 had a Kd of 0.141 nM.

As to B4, the Kd was 0.046 nM.

For the molecule B5, the Kd amounted to 0.0122 nM.

In another assay the target is B6. Described as above. The procedure:
as §1
With B1, binding was put at a Kd of 8.1 nM.

Consider B2, for which the Kd came out at 13.1 nM.

On to B3, for which binding was put at a Kd of 58.9 nM.

B4 displayed a Kd of 13.6 nM.

In the case of B5, the Kd was 13.6 nM.

For a further assay, the target named is T1, growth differentiation factor 8 (GDF-8). The description is as above. The procedure:
as §1
The molecule B1 came in with a Kd of 0.229 nM.

Molecule B2 showed a Kd of 0.0672 nM.

The molecule B3 registered a Kd of 0.0121 nM.

In turn, B4 gave a Kd of 0.115 nM.

Molecule B5 yielded a Kd of 0.0248 nM.

For another assay, the target named is T2, ActRIIB-A1 (SEQ ID NO: 120) chimera-Fc …. The assay is described as above. The procedure: as §1
As for B6, the Kd worked out at 0.0151 nM.

B7 returned a Kd of 0.0175 nM.

In the case of B8, binding was put at a Kd of 0.0448 nM.

For B9, the Kd was < 0.001 nM.

In the case of B10, the Kd is < 0.001 nM.

The target in a further assay is T3, ActRIIB (SEQ ID NO: 31) Fc protein. Described as above. The procedure:
as §1
B6 showed a Kd of 0.0358 nM. That is a picomolar value.

B7: the Kd was 0.0105 nM. This Kd is about 3.4-fold lower than that of the molecule before.

On to B10, for which the Kd is < 0.001 nM.

For a further assay, the target named is B10. Put plainly: cell-based or functional assay.
In the case of B1, the “IC50, SBE-luciferase reporter in HEK293 cells” value (from here on “IC50, SBE-luciferase reporter”) was 0.18 µg/mL.

For B2, the “IC50, SBE-luciferase reporter” value stood at 0.29 µg/mL.

B3: the “IC50, SBE-luciferase reporter” value was determined as 0.23 µg/mL.

In the case of B4, the “IC50, SBE-luciferase reporter” value is 0.22 µg/mL.

As for B5, the “IC50, SBE-luciferase reporter” value came to 0.13 µg/mL.

For a further assay, the target named is B9. Put plainly: cell-based or functional assay.
For B1, the “IC50, SBE-luciferase reporter” value is 0.1 µg/mL.

B2: the “IC50, SBE-luciferase reporter” value was determined as 0.16 µg/mL.

As for B3, the “IC50, SBE-luciferase reporter” value stood at 0.18 µg/mL.

On to B4, for which the “IC50, SBE-luciferase reporter” value was 0.094 µg/mL.

For B5, the “IC50, SBE-luciferase reporter” value came out at 0.071 µg/mL.

The next assay concerns the target B8. As to the kind of experiment: cell-based or functional assay.
Take B1: the “IC50, SBE-luciferase reporter” value amounted to 0.075 µg/mL.

As for B2, the “IC50, SBE-luciferase reporter” value was 0.7 µg/mL.

As to B3, the “IC50, SBE-luciferase reporter” value stood at 0.84 µg/mL.

Regarding B4, the “IC50, SBE-luciferase reporter” value turned out to be 0.32 µg/mL.

B5: the “IC50, SBE-luciferase reporter” value is 0.14 µg/mL.

The target in the next assay is B6. As to the kind of experiment: cell-based or functional assay.
In the case of B1, the “IC50, BRE-luciferase reporter in C2C12 cells” value (from here on “IC50, BRE-luciferase reporter”) was found to be 1.9 µg/mL.

Regarding B2, the “IC50, BRE-luciferase reporter” value is > 50 µg/mL.

Regarding B3, the “IC50, BRE-luciferase reporter” value worked out at 21 µg/mL.

With B4, the “IC50, BRE-luciferase reporter” value was > 50 µg/mL.

Consider B5, for which the “IC50, BRE-luciferase reporter” value was > 50 µg/mL.

In general, Kd refers to the equilibrium constant for the complex coming apart. High values mean a looser complex, low ones a tighter complex.
